Results from PMC11315690.

Biological target: N-terminal structural domain of human Nogo-B protein (hNogo-B-N), residues 1-185, with human Fc fragment (human) (UniProt Q9NQC3)
Assay: SPR

Sequence of UniProt Q9NQC3 (Q9NQC3 1-185): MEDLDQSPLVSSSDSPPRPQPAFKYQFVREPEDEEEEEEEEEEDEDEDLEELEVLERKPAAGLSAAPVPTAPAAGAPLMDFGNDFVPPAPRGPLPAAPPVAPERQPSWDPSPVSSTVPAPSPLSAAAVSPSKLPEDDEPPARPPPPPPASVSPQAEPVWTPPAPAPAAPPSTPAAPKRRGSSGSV

Question: “human proGCG protein (hproGCG) with C-terminal Strep-tag II (natural protein)” was tested. Which Kd did it give?
Answer: 1370 nM
